This note sets out measurements from article PMC6599559 (Journal of molecular biology, 2019).

The assay concerns the target eukaryotic elongation factor 2 (eEF-2) from yeast (yeast (commercial yeast cake), UniProt P32324 1-842). Kind of assay: ITC. (In general: ITC needs no label: the signal is the heat of the interaction.)

Sequence of eukaryotic elongation factor 2 (eEF-2) from yeast (P32324 whole entry): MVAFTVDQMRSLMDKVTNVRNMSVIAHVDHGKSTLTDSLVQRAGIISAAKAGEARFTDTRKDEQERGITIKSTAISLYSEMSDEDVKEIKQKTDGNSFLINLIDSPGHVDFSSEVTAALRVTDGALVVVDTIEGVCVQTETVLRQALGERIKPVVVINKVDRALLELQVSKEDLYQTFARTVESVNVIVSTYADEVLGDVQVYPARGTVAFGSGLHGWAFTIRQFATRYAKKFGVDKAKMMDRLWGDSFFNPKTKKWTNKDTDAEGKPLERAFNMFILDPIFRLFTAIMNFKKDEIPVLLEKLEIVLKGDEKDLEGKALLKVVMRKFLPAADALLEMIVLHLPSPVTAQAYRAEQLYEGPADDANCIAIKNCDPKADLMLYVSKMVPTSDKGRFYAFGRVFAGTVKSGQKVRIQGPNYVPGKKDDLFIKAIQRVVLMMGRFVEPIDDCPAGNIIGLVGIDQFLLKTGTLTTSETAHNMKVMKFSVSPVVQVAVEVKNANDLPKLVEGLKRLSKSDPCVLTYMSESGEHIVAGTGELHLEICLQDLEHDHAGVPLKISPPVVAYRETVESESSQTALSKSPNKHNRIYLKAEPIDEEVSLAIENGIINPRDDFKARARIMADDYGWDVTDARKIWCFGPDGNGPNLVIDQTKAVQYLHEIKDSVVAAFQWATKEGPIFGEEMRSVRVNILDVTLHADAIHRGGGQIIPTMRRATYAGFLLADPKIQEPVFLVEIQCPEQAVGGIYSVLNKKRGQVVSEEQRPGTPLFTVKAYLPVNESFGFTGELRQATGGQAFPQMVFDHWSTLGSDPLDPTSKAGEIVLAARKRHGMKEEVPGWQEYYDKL

B1: eEF-2K_(592–725), C-terminal fragment of human eukaryotic elongation factor 2 kinase (residues E592-E725) (domain or fragment, UniProt O00418 592-725, looked up)
chain: ENKTKGFDYLLKAAEAGDRQSMILVARAFDSGQNLSPDRCQDWLEALHWYNTALEMTDCDEGGEYDGMQDEPRYMMLAREAEMLFTGGYGLEKDPQRSGDLYTQAAEAAMEAMKGRLANQYYQKAEEAWAQMEE
For the molecule B1, the dissociation constant (Kd) (as a rule, the free concentration of one partner at which half of the binding sites on the other are occupied at equilibrium, for simple one-to-one binding) lay within 15.4 to 19 µM.

B2: eEF-2K_(562–725), C-terminal fragment of human eukaryotic elongation factor 2 kinase (residues G562-E725) (domain or fragment)
chain: SHMGELEAIVGLGLMYSQLPHHILADVSLKETEENKTKGFDYLLKAAEAGDRQSMILVARAFDSGQNLSPDRCQDWLEALHWYNTALEMTDCDEGGEYDGMQDEPRYMMLAREAEMLFTGGYGLEKDPQRSGDLYTQAAEAAMEAMKGRLANQYYQKAEEAWAQMEE
In the case of B2, the equilibrium dissociation constant (Kd) fell in the range of 4.2 to 8.9 µM.
